Laboratory results as given in article PMC5727402, “Structure of the large terminase from a hyperthermophilic virus reveals a unique mechanism for oligomerization and ATP hydrolysis” (Nucleic Acids Research, 2017).
Several values for one entry are separate records, joined by “and”; a condition that tells them apart may be missing. Identical values can stand only once. Values belong to the compound of their own block, whether it stands above or below them.

Experiments:
[1] = biological target: D6E large terminase ATPase domain (1–234) (Geobacillus stearothermophilus bacteriophage D6E); experiment: SEC; ATPase domain alone (Supplementary Figure S1C); conditions not shown
[2] = biological target: T1, full-length D6E large terminase (1–427) (synthetic construct, UniProt Z9WCS4P2M6); experiment: thermal shift assay (SYPRO Orange); format: binding; settings: 5 mM nucleotide, 5 mM MgCl2, 5 mM HEPES pH 7.5, 5 mM potassium glutamate, 5 μM protein
T1 construct: full length residues 1-427; N-terminal His6-3C tag cleaved; codon-optimized synthetic gene, E. coli BL21-Gold(DE3); monomer by SEC, monomer to pentamer by AUC, active oligomer proposed pentameric
T1 sequence (Z9WCS4P2M6 4-430): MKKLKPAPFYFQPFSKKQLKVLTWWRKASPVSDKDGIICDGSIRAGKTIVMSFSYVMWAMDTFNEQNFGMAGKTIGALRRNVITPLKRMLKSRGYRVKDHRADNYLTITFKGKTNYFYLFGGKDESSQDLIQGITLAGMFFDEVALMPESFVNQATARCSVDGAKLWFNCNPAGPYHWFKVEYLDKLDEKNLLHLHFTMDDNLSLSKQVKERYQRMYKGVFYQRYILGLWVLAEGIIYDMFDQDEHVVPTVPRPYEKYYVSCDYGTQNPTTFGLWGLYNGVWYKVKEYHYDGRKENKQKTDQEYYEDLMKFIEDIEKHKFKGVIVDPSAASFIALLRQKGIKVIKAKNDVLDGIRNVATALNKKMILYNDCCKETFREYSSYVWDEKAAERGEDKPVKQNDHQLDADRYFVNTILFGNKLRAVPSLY

[3] = test system: Nc1ncnc2c1ncn2[C@@H]1O[C@H](COP(=O)(O)OP(=O)(O)OP(=O)(O)O)[C@@H](O)[C@H]1O; experiment: purified protein; settings: 10 mM HEPES pH 7.5, 50 mM potassium glutamate, 10 mM MgCl2, room temperature, 4.5 μM protein

stoichiometry N [1]: 4 and 5
Compound: D6E large terminase ATPase domain (1–234) (domain or fragment)

Compound: Nc1ncnc2c1ncn2[C@@H]1O[C@H](COP(=O)(O)OP(=O)(O)OP(O)(O)=S)[C@@H](O)[C@H]1O [ATP-γ-S]
ΔTm [2]: 7.8 °C

Compound: C-terminally truncated protein (1–417) (synthetic construct)
Km [3]: 196.72 ± 8.0 µM | kcat [3]: 0.0583 ± 0.00067 s⁻¹

Compound: Nc1ncnc2c1ncn2[C@@H]1O[C@H](COP(=O)(O)OP(=O)(O)O)[C@@H](O)[C@H]1O [ADP]
ΔTm [2]: 2.3 °C
